Measured values published in patent US20100221329A1 (SYNERGY PHARMACEUTICALS, published 2010).
Bridges are numbered along the chain shown (N, C = ends). Where no end group is shown, it is not given here.

Biological target: guanylate cyclase C (human, UniProt P25092 24-1073)
Experiment: cell-based or functional assay

guanylate cyclase C, sequence (P25092 24-1073): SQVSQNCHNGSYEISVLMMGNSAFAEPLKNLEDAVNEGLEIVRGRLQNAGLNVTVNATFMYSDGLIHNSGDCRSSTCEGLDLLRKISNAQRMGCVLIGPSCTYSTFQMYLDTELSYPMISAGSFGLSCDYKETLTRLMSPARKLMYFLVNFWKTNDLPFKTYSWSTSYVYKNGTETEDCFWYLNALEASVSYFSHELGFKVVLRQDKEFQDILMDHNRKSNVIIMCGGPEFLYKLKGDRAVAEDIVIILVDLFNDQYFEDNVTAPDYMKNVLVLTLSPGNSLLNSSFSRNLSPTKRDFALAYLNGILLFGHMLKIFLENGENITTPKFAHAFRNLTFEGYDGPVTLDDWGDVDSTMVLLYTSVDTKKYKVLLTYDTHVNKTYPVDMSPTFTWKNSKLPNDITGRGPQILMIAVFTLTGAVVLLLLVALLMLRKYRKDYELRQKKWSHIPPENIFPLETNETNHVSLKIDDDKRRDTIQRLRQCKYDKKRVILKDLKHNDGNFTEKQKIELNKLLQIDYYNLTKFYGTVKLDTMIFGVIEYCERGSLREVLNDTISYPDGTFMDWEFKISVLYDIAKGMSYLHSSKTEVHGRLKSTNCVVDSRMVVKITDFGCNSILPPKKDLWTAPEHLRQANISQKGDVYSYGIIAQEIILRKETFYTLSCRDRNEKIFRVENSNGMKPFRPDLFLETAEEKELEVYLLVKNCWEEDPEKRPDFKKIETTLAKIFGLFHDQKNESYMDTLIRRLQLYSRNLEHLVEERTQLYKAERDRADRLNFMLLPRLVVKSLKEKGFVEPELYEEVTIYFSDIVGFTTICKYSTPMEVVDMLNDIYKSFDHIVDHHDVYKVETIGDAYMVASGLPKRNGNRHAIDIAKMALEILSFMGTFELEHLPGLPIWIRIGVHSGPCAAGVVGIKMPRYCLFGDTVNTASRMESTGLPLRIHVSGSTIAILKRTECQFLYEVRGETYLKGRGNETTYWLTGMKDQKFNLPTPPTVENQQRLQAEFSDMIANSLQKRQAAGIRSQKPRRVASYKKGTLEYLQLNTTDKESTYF

## NDECELCVNVACTGC (disulfide 4-12, 7-15) [SP-338]
  stimulation of cGMP synthesis in T84 cells (peptide at 1.0 µM, 30 min), biological activity relative to SP-304: ~80 % of the biological activity of SP-304
